B1: BGAh9239 (antibody, human IgG1, kappa, V domains shown)
VH: QVQLVQSGAEVKKPGSSVKVSCKASGYTFSIYWLNWVRQAPGQGLEWMGQIYPENADTNYSGKFKGRVTITADKSTSTAYMELSSLRSEDTAVYFCARGGFDYWGQGTLVTVSS
VL: DIQMTQSPSSLSASVGDRVTITCRASENIYSNLAWYQQKPGKAPKLLIYTATNLAEGVPSRFSGSGSGTDFTLTISSLQPEDFATYYCQHFYGILYTFGQGTRLEIKR
B2: BGA1421 (antibody, human IgG1, kappa, V domains shown)
VH: QVQLVQSGAEVKKPGSSVKVSCKASGYIFTTYNVHWVRQAPGQGLEWIGSIYPDNGDTSYNQNFKGRATITADKSTSTAYMELSSLRSEDTAVYYCARGDFAYWGQGTLVTVSS
VL: DIQMTQSPSSLSASVGDRVTITCKASQGVSNDVAWYQQKPGKAPKLLIYSASYRYTGVPSRFSGSGSGTDFTFTISSLQPEDIATYYCQQHSTTPYTFGQGTKLEIKR
B3: BGAm1371 (antibody, V domains shown)
VH: QVQLKQSGAELVKPGASVKLSCTASGFNIKDTYIHWVKQRPEQGLEWIGRIDPANGNTMFASEFQGKATITAYTSSNTAYMQLSSLTSGDTAVYYCARSKIHYDYDEGFAYWGQGTLVTVSS
VL: NIVLTQSPPSLAVSLGQRATVSCRASESVDDYGYSFLHWYQQKPGQPPKLLIYRASNLESGIPARFSGSGSRTDFTLTINPVETDDVATYYCQQSNQNPRTFGGGTKLEIK
B4: BGAh9179 (antibody, human IgG1, kappa, V domains shown)
VH: QVQLVQSGAEVKKPGASVKVSCKASGYTITDTYIHWVRQAPGQGLEWMGRIDPAEGNTMFASEFQGRVTMTADTSTSTVYMELSSLRSEDTAVYYCARSKIHYDYDEGFAYWGQGTLVTVSS
VL: DIVLTQSPDSLAVSLGERATINCRASESVDDYGYSFLHWYQQKPGQPPKLLIYRASNLESGVPDRFSGSGSGTDFTLTISSLQAEDVAVYYCQQSNQNPRTFGGGTKVEIKR
B5: BGAm1823 (antibody, V domains shown)
VH: EVQLQQSGAELVKPGASVKISCKASGYAFSIYWMNWVKQRPGKGLEWIGQIYPENGDTNYNGKFKGKATLTADKSSSTAYMHLSSLTSEDSAVYFCARGGFDYWGQGTTLTVSS
VL: NIVMTQSPASLSASVGETVTITCRASENIYSNLAWYQQKQGKSPQLLVYTATNLADGVPSRFSGSGSGTQFSLKINSLQPEDFGSYYCQHFYGILYTFGSGTRLEIK

The binders below were run against human FGFR2c on cells (human) (UniProt P21802) (assay: flow cytometry, human FGFR2c OE cells).
Sequence of human FGFR2c on cells (human) (P21802 22-821): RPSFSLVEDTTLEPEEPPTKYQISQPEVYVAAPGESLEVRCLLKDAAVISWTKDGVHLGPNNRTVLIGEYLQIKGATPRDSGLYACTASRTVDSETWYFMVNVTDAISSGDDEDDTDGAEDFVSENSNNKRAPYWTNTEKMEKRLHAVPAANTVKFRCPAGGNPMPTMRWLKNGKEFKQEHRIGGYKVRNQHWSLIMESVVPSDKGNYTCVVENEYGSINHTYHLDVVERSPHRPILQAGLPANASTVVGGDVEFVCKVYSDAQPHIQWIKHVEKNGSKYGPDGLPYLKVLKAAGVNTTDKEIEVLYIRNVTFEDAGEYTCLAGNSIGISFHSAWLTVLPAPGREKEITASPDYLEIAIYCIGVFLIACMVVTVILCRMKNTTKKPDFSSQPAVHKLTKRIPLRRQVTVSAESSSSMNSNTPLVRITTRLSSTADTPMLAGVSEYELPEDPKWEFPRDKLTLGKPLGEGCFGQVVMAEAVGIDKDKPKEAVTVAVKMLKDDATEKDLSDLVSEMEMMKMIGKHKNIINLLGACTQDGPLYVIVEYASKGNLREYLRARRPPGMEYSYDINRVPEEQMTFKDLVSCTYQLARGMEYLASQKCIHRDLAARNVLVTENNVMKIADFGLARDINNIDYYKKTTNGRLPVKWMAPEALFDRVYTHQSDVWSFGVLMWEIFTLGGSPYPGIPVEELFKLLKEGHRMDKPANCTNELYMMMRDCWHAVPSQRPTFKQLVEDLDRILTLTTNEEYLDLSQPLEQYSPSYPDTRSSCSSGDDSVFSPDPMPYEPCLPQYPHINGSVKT

Row | Binder | Emax (MFI)
1 | B1 | 36
2 | B2 | 40
3 | B3 | 33

These binders were tested against soluble human FGFR2b protein (his tag, in-house generated) (human) (UniProt P21802) (assay: SPR (Biacore 8K), antibody captured by anti-human Fc, soluble human FGFR2b-his as analyte).
Sequence of soluble human FGFR2b protein (his tag, in-house generated) (human) (P21802 other isoform, or with tags, fused parts or gaps limits assumed): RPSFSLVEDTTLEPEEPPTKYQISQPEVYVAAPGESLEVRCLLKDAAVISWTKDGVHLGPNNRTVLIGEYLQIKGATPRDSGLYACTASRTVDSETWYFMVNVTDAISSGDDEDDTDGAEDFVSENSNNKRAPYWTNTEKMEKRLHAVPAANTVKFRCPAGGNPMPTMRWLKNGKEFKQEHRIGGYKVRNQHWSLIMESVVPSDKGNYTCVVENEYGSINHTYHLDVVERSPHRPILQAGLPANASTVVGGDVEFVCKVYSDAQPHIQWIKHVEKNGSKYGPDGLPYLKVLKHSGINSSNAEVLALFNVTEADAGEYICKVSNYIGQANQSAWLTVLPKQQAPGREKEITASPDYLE

Row | Binder | Kd [nM] | koff [s⁻¹] | kon [M⁻¹ s⁻¹]
4 | B1 | 24.7 | 0.00189 | 76600
5 | B2 | 22.2 | 0.00232 | 104000
6 | B4 | 13.9 | 0.00112 | 80600

Each binder was assayed against human FGFR2b protein (recombinant, coated on ELISA plates) (human) (UniProt P21802) (assay: ELISA, plate-coated human FGFR2b).

Row | Binder | EC50 [nM] | Emax (OD450)
7 | B1 | 0.26 | 3.37
8 | B2 | 0.61 | 2.62
9 | B3 | 0.19 | 3.35

What follows are binders tested against human FGFR2c on cells (human) (UniProt P21802) (assay: flow cytometry, Expi293 cells overexpressing human FGFR2c).

Row | Binder | Emax (MFI)
10 | B5 | 22600
11 | B1 | 23800
12 | B4 | 21700
13 | B3 | 23100

The binders below were run against mouse FGFR2b on cells (mouse) (UniProt P21803) (assay: flow cytometry, Expi293 cells overexpressing mouse FGFR2b).

Row | Binder | EC50 [nM] | Emax (MFI)
14 | B5 | 3.37 | 5.19e+06
15 | B1 | 2.67 | 5.1e+06
16 | B4 | 4.25 | 5.15e+06
17 | B3 | 3.5 | 4.98e+06

The binders below were run against human FGFR2c protein (recombinant, coated on ELISA plates) (human) (UniProt P21802) (assay: ELISA, plate-coated human FGFR2c).

Row | Binder | Emax (A450) | Emax (OD450)
18 | B5 | 0.116 | 
19 | B1 | 0.13 | 0.07
20 | B2 |  | 0.09
21 | B4 | 0.086 | 
22 | B3 | 0.204 | 0.07

These binders were tested against human FGFR2b on cells (human) (UniProt P21802) (assay: flow cytometry, Expi293 cells overexpressing human FGFR2b).
Sequence of human FGFR2b on cells (human) (P21802 other isoform, or with tags, fused parts or gaps limits assumed): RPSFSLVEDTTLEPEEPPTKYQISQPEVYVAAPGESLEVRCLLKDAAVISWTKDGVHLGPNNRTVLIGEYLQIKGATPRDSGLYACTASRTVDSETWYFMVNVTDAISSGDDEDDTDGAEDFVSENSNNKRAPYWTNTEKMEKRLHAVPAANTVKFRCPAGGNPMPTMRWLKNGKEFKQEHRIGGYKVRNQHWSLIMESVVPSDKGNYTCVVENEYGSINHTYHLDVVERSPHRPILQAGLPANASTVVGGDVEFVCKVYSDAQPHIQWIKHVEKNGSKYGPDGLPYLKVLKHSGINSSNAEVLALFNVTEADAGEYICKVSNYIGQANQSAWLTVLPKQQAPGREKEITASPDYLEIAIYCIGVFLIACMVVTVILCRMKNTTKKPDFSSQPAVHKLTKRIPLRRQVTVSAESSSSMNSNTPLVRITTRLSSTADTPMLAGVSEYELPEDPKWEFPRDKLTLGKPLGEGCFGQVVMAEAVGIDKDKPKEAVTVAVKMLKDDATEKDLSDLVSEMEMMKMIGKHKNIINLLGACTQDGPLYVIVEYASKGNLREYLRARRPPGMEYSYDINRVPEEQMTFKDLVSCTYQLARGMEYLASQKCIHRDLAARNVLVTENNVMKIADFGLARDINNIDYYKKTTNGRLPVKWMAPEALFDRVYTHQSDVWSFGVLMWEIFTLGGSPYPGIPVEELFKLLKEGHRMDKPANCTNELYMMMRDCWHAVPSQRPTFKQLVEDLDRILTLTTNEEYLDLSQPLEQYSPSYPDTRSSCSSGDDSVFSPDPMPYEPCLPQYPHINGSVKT

Row | Binder | EC50 [nM] | Emax (MFI)
23 | B5 | 2.12 | 3.09e+06
24 | B1 | 2.4 | 3.08e+06
25 | B4 | 3.29 | 2.98e+06
26 | B3 | 1.5 | 3.05e+06

These binders were tested against mouse FGFR2b on cells (mouse) (UniProt P21803) (assay: flow cytometry, murine FGFR2b OE cells).

Row | Binder | EC50 [nM]
27 | B1 | 1.59
28 | B2 | 0.81
29 | B3 | 1.78

These binders were tested against soluble human FGFR2b protein (his tag, in-house generated) (human) (UniProt P21802) (assay: SPR, antibody captured by anti-human Fc, human FGFR2b).

Row | Binder | Kd [nM] | koff [s⁻¹] | kon [M⁻¹ s⁻¹]
30 | B5 | 24.2 | 0.00185 | 76300
31 | B1 | 37.3 | 0.003 | 80500
32 | B4 | 21.8 | 0.00178 | 81600
33 | B3 | 16.3 | 0.00119 | 72900

Biological target: human FGFR2b protein (recombinant, coated on ELISA plates) (human) (UniProt P21802)
Experiment: ELISA, plate-coated human FGFR2b
Remark: another data set of the same source

Row | Binder | EC50 [nM] | Emax (A450)
34 | B5 | 0.0442 | 2.95
35 | B1 | 0.031 | 2.94
36 | B4 | 0.0518 | 2.99
37 | B3 | 0.0309 | 3.01

These binders were tested against human FGFR2b on cells (human) (UniProt P21802) (assay: flow cytometry, human FGFR2b OE cells).

Row | Binder | EC50 [nM]
38 | B1 | 1.84
39 | B2 | 0.48
40 | B3 | 1.25
